This is an account of results in article PMC5078793.

The experiment addresses ADAMTS6 C-terminal region (human) (UniProt Q9UKP5). The experiment is described as follows: SPR; Biacore; ADAMTS protein (full-length or C-terminal region) immobilised by amine coupling on CM5 (~3000 RU); analyte injected at 30 ul/min; 10 mM HEPES pH 7.4, 0.1 M NaCl, 0.5 mM CaCl2, 0.005% P20; 1:1 kinetics or equilibrium analysis. Background: Surface plasmon resonance follows binding to a sensor surface in real time, without labels.

Chain of ADAMTS6 C-terminal region (human) (Q9UKP5 558-1117): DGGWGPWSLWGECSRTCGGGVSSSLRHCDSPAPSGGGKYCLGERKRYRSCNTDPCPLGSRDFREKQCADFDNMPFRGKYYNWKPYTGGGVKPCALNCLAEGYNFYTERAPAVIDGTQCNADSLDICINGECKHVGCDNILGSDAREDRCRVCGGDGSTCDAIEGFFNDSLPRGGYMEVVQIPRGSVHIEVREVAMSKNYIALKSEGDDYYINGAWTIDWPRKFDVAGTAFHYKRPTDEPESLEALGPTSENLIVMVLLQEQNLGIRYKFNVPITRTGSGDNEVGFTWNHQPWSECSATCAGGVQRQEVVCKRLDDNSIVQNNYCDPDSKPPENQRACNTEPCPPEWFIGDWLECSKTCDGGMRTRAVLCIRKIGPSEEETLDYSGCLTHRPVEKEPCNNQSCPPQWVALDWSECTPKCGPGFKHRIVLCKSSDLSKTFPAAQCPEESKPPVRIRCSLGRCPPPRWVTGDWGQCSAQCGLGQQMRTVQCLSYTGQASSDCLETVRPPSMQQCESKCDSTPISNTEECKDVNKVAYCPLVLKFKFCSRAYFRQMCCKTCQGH

Broadly, the Kd is the equilibrium constant for the complex coming apart. For the substance cellular fibronectin (natural protein), the equilibrium dissociation constant (Kd) was 9.8 nM.
